Assay results from patent US20250297003A1.

Target: sialic acid-binding immunoglobulin-like lectin-9 (Siglec-9), human, on mast cells (human) (UniProt Q9Y336)
Assay: cell-based or functional assay

Chain of UniProt Q9Y336 (Q9Y336 18-463): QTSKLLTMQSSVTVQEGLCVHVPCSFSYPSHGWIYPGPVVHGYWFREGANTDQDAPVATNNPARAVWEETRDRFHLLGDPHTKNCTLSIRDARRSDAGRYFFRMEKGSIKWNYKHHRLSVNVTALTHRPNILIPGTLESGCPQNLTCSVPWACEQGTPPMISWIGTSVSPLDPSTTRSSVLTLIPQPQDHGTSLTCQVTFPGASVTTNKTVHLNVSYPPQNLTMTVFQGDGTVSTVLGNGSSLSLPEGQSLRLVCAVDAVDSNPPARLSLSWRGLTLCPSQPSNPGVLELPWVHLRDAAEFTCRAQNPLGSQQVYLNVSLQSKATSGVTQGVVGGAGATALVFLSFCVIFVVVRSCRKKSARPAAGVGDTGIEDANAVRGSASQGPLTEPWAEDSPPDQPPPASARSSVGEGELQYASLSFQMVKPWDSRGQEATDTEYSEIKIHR

- inhibition of MCP-1 release by HSCMCs (Siglec-9 co-crosslinked with FcεRI by a secondary antibody): 46.5%
- percentage of surface Siglec-9 signal lost (HSCMCs, 24 h, delayed secondary staining): 30%
- percentage of surface Siglec-9 signal lost (LAD2 cells, 1 h, delayed secondary staining): 30%
Substance: mouse anti-human Siglec-9 monoclonal antibody (clone 191240, R&D Systems)
